In one data set the test system is SC-35. Briefly: SC-35 phosphorylation, Western blot analysis and flow cytometry. Format: cell-based.
A further data set deals with PKC isoforms. In words: ProtoArray Human Protein Microarray interaction profiling. Particulars: screen of 8000 human proteins. Format: binding. The method, then:
(§1) ProtoArray® Human Protein Microarray version 4.0 (Invitrogen) was performed as previously described^20, which consists of approximately 8,000 human proteins. AlexaFluor®568-labeled HAMLET was added to protein arrays at two concentrations (5 and 50 ng/μl) in duplicate, and the fluorescence was measured by using GenePix 6.0. Negative control array was incubated with buffer alone and scanned at a wavelength of 532 nm. […] The interactions were quantified as fold change (FCs) over the average negative control value.

The next data set concerns histone H3. Described as above. Particulars: screen of 8000 human proteins. Format: binding. The method, then: as §1
The subject of a further data set is bladder cancer. Particulars: prior clinical study; cited from earlier work.
The test system of data set [1] is Protein kinase C (PKC) isoforms. In words: Kinex KAM-850 phospho-antibody array. Format: cell-based, human. Particulars: 1 hour, 21 uM. The procedure:
The in vivo kinase activity assay was performed using Kinex™ KAM-850 Antibody Microarray Services (Kinexus, Canada). Untreated and HAMLET-treated samples were performed in duplicates. Raw quantification data and basic analyses for individual samples were provided. Reference data, consolidated data of over 200 samples was also provided as reference, confirming the validity of the assay performed. Targets with percent fold change over control>10 were significant. The targets were identified in the human profiling human activity-based phosphorylation network (Molecular Systems Biology 9:655).

In a further data set the test system is MB49 bladder tumor. Briefly: Real-time in vivo fluorescence imaging and tissue uptake of labeled complex. Particulars: tumor-bearing mice; intravesical; 24 hours.
For data set [2], the system named is adherent lung carcinoma cells (A549). In words: Live cell imaging of Alexa-Fluor labeled HAMLET uptake. Format: cell-based, human. Particulars: 35 μM, 1 hour. The procedure: For uptake experiments lung carcinoma cells were treated with Alexa-488 or 568 labeled HAMLET, washed and visualized under confocal microscope live. Localization of HAMLET in lysosomes was detected by pre-labelling the cells with lysotracker (LysoTracker Green DND-26, Thermo Fisher). For peptide or peptide-oleate complexes uptake, lung carcinoma cells were treated with individual biotinylated peptide alone or mixed with sodium oleate. Cells were fixed (2% PFA, 10 min), permeabilized (0.25% Triton X-100) and blocked with FCS (10% in PBS). The biotinylated peptides were detected with Alexa-488 or 568 labeled streptavidin conjugate (1:200, 5% FCS/PBS, 1 hour). The accumulation of peptide or peptide oleate complexes in lysosomes was investigated by treatment of lung carcinoma cells with Alexa-568 labeled peptide (20%) or peptide-oleate complexes for 1 hour. Cells were counter stained with lysosomal marker, Lysotracker. Slides were examined using LSM 510 META or LSM 800 laser scanning confocal microscope (Carl Zeiss).
During live cell imaging of Alexa-Fluor labeled HAMLET (35 μM, 1 hour) and adherent lung carcinoma cells (A549), two distinct cellular staining patterns (FIG. 1a) were detected. […] Nuclear speckles reside in the inter-chromatin space of eukaryotic nuclei and serve as important nodes in the splicing of pre-mRNA and transport of spliced RNA. […]

The source of these data is patent US20200009222A1, “[…] ACTIVE COMPLEXES” (HAMLET PHARMA AB, priority 2016, published 2020).

Protocol for MB49 bladder tumor: HAMLET or peptides were labeled using VivoTag 680XL Protein Labeling Kit (Perkin Elmer). Mice were anaesthetized using Isofluorane and 100 ul solution of labeled HAMLET or peptide was instilled in bladders of tumor bearing or healthy control mice.
Hair was removed from the ventral sides of anesthetized mice. Mice were imaged at various time points using an IVIS Spectrum imaging system (Perkin Elmer). Signals from HAMLET or peptides were acquired at fluorescent settings with 680 nm excitation. For tissue specific uptake, Alexa-568 labeled peptide was instilled in bladders of tumor bearing or healthy control mice. Mice were sacrificed after 24 hours of treatment and bladder sections were imaged using Zeiss AX10 fluorescence microscope.
The retention of alpha-peptide oleate complexes by the tumor was visualized, by in vivo imaging in mice with palpable tumors. VivoTag 680XL labeled alpha1 peptide-oleate complexes were instilled intra-vesically on day 8 after the inoculation of MB49 cells and the fluorescence signal was monitored longitudinally, using the IVIS spectrum in vivo imaging system.
To verify that the alpha-peptides are retained by the bladder tumor, Alexa Fluor-568 labeled alpha1 peptide-oleate complexes were instilled into the bladders of tumor bearing mice (day 8, palpable tumors).
Protocol for SC-35: Cells were grown on 6-well plates (3×10^5/well, TPP) overnight. Cells treated with HAMLET were lysed with mammalian NP-40 lysis buffer supplemented with protease and phosphatase inhibitors (both from Roche Diagnostics). […] The anti-GAPDH (1:1,000, sc-25778, Santa Cruz) and anti-Histone H3 (ab1791, Abcam) were used as loading controls. Primary antibodies followed by HRP-conjugated secondary anti-rabbit or anti-mouse antibodies (1:4000, 5% NFDM, Cell Signaling) and visualized using ECL Plus detection reagent (GE Health Care). Band intensities were quantified using the ImageJ software 1.46r (NIH).

B1: HAMLET (protein)
chain: KQFTKCELSQLLKDIDGYGGIALPELICTMFHTSGYDTQAIVENNESTEYGLFQISNKLWCKSSQVPQSRNICDISCDKFLDDDITDDIMCAKKILDIKGIDYWLAHKALCTEKLEQWLCEKL
Turning to B1, in the data set on SC-35, the SC-35 phosphorylation result is “inhibited”. Further, the “Binding to PKC isoforms in proteomic screen” value in the data set on PKC isoforms was “identified as HAMLET targets”. In the data set with histone H3, the “Affinity for histone H3 in proteomic screen” value is on record as “confirmed”. Besides, in the data set with bladder cancer, the Toxic effects entry is reported as “not detected” and the “Tumor response to intravesical instillations” value is listed as “massive tumor cell exfoliation”. For the same molecule, in data set [1], the “PKC isoforms with inhibited phosphorylation” value is recorded as 5/6. In the data set with MB49 bladder tumor, the “Fluorescence signal of VivoTag 680XL labeled complex, retention” value is given as “retention”. In addition, in data set [2], the “Population I cells (membrane blebbing, diffuse cytoplasmic staining, nuclear speckle accumulation)” value was 51% and the “Population II cells (exclusively cytoplasmic, lysosomal uptake)” value was 47%.
